Reference: doi:10.1101/2025.09.15.676363

Legend:
[1] = biological target: WT-Dsg2, complete extracellular region (EC1-5) of human desmoglein-2 (human) (UniProt Q14126); test: single-molecule AFM binding assay
[2] = biological target: Full-length W2A Pcad fused to a C-terminal mCherry tag (human); test: co-IP
[3] = biological target: Full-length I175D Pcad fused to a C-terminal mCherry tag (human); test: co-IP
[4] = biological target: W2A-Dsg2, complete extracellular region (EC1-5) of human desmoglein-2 (human) (UniProt Q14126); test: single-molecule AFM binding assay

Substance	binding probability [1]	Dsg2 binding capacity relative to WT-Pcad (Dsg2/Pcad pull-down ratio) [2]	Dsg2 binding capacity relative to WT-Pcad (Dsg2/Pcad pull-down ratio) [3]	binding probability [4]
I175D-Pcad, complete extracellular region (EC1-5) of human P-cadherin (from UniProt P22223 25-654) (domain or fragment)	7.8%			
W2A-Pcad, complete extracellular region (EC1-5) of human P-cadherin (from UniProt P22223 25-654) (domain or fragment)	4%			
WT-Pcad, complete extracellular region (EC1-5) of human P-cadherin (from UniProt P22223 25-654) (domain or fragment)	8%			4%

The remaining lines, values ahead:

binding probability [1]	Dsg2 binding capacity relative to WT-Pcad (Dsg2/Pcad pull-down ratio) [2]	Dsg2 binding capacity relative to WT-Pcad (Dsg2/Pcad pull-down ratio) [3]	binding probability [4]	Substance
4.5%				A5P-Pcad, complete ectodomain of human P-cadherin (from UniProt P22223 25-654) (domain or fragment)
	25%	80%		Desmoglein-2 (Dsg2), endogenous in A431 cells (from UniProt Q14126 50-1118) (natural protein)
